Patent US20140072613A1 (published 2014)

T1: DYRK2(h) (human, UniProt Q92630 1-601, limits assumed)
T1 sequence (looked up): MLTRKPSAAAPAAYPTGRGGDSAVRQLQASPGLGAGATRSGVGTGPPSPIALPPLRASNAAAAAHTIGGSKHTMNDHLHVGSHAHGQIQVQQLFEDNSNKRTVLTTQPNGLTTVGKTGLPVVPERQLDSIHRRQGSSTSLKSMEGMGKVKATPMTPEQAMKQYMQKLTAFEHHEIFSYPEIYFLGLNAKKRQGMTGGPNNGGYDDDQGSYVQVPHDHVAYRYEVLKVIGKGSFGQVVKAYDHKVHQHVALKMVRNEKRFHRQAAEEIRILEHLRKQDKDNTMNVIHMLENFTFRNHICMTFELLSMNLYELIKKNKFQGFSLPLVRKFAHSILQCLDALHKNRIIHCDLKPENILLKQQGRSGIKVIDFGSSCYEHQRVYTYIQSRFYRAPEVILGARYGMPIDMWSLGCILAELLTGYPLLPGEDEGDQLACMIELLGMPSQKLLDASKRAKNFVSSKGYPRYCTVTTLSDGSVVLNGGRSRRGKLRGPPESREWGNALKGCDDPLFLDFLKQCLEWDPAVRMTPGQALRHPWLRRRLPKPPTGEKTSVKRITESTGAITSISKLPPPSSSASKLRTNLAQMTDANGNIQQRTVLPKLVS

T2: Ret(V804M)(h) (human, UniProt P07949 658-1114, limits assumed)
T2 sequence (looked up): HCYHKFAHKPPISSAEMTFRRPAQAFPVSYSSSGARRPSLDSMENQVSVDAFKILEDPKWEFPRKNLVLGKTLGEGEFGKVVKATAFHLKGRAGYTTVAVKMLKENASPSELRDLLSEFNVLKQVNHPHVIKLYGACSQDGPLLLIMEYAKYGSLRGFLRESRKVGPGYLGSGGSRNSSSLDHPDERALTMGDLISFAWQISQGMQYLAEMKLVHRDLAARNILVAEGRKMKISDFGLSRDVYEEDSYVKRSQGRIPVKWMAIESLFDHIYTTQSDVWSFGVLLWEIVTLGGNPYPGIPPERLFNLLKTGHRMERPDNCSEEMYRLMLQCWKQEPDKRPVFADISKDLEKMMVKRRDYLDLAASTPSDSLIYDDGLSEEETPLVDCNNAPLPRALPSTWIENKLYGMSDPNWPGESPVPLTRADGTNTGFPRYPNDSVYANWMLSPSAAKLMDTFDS

T3: TAK1(h) (human, UniProt O43318 1-303, limits assumed)
T3 sequence (looked up): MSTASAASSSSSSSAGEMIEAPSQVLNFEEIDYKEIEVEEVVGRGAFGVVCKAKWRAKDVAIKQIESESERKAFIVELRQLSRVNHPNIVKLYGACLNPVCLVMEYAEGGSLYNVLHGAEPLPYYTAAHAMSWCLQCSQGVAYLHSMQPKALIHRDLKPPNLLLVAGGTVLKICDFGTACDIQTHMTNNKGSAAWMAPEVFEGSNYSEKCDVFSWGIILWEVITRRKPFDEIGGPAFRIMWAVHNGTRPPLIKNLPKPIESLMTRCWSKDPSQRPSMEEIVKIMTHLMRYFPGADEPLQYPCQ

T4: CaMKIV(h) (human, UniProt Q16566 1-473)
T4 sequence (looked up): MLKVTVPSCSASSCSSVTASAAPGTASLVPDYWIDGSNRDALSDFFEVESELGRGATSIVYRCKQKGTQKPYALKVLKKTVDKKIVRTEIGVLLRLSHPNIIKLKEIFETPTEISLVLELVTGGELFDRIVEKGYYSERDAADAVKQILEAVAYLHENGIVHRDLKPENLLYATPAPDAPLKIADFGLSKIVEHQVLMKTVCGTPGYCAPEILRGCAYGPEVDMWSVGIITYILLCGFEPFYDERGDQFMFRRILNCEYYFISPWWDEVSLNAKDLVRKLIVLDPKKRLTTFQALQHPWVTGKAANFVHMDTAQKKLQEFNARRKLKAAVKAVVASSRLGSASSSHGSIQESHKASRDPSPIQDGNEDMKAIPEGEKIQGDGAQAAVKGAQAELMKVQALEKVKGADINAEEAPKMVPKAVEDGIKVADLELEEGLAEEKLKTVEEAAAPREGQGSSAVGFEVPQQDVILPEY


How the values were obtained:
Assay in all cases: cell-based or functional assay
Rsk4(h) = Rsk4(h) (human, UniProt Q9UK32 1-745, limits assumed)
EGFR(T790M)(h) = EGFR(T790M)(h) (human, UniProt P00533 696-1210, limits assumed)
STK33(h) = STK33(h) (human, UniProt Q9BYT3 1-514, limits assumed)
PASK(h) = PASK(h) (human, UniProt Q96RG2 879-1323, limits assumed)
Hck(h) activated = Hck(h) activated (human, UniProt P08631 251-518, limits assumed)
Plk3(h) = Plk3(h) (human, UniProt Q9H4B4 58-340, limits assumed)
mTOR(h) = mTOR(h) (human, UniProt P42345 1362-2549)
DYRK2(h) = target: T1, DYRK2(h)
VRK2(h) = VRK2(h) (human, UniProt Q86Y07 1-508, limits assumed)
Ret(V804M)(h) = target: T2, Ret(V804M)(h)
NEK6(h) = NEK6(h) (human, UniProt Q9HC98 1-313)
TAK1(h) = target: T3, TAK1(h)
IGF-1R(h) = IGF-1R(h) (human, UniProt P08069 959-1367, limits assumed)
CaMKIV(h) = target: T4, CaMKIV(h)
FGFR1(h) = FGFR1(h) (human, UniProt P11362 456-765, limits assumed)
PKBα(h) = PKBα(h) (human, UniProt P31749 1-480, limits assumed)

Row | Binder | % activity, 100 µM (Rsk4(h)) [%] | % activity, 100 µM (EGFR(T790M)(h)) [%] | % activity, 100 µM (STK33(h)) [%] | % activity, 100 µM (PASK(h)) [%] | % activity, 100 µM (Hck(h) activated) [%] | % activity, 100 µM (Plk3(h)) [%] | % activity, 100 µM (mTOR(h)) [%] | % activity, 100 µM (DYRK2(h)) [%] | % activity, 100 µM (VRK2(h)) [%] | % activity, 100 µM (Ret(V804M)(h)) [%] | % activity, 100 µM (NEK6(h)) [%] | % activity, 100 µM (TAK1(h)) [%] | % activity, 100 µM (IGF-1R(h)) [%] | % activity, 100 µM (CaMKIV(h)) [%] | % activity, 100 µM (FGFR1(h)) [%] | % activity, 100 µM (PKBα(h)) [%]
1 | KAFAKLAARLYRKALARQLGVAA [MMI-0400] | 91 | 106 | 52 | 28 | 81 | 129 | 93 | 195 | 185 | 87 | 85 | 177 | 90 | 18 | 59 | 67
2 | FAKLAARLYRKALARQLGVAA [MMI-0300] | 90 | 100 | 45 | 29 | 82 | 127 | 91 | 155 | 161 | 95 | 82 | 122 | 119 | 17 | 55 | 57
